Measurements from US20150252107A1, “APLNR Modulators and Uses Thereof” (Regeneron Pharmaceuticals, Inc., priority 2013, published 2015).
“And” between values parts separate entries of the source, which are not always exact repeats. Equal values may be shown once. “Also recorded” adds a separate entry of the source. No end group written: not given here.

What was measured:
hAPLNR [1] = target: T1, hAPLNR (Homo sapiens, UniProt P35414); assay: CRE assay of modified apelin peptides in HEK293/CRE-luc/hAPLNR cells; type: cell-based; details: Table 9; 5 μM forskolin
T1 construct: expressed in transfected cells
T1 sequence (P35414 1-380): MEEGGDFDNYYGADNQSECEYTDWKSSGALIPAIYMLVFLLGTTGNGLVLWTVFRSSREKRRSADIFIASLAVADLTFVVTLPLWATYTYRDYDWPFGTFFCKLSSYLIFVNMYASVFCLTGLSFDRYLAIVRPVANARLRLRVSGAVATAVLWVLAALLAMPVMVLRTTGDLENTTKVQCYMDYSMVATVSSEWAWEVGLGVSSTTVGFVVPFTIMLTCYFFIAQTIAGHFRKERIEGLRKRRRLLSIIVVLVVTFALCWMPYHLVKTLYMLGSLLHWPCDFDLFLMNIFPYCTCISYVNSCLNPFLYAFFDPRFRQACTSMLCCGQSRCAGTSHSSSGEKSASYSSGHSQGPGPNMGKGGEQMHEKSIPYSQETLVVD
Description: After 5 hours of incubation at 37° C. in 5% CO2, luminescence was measured following the addition of One Glo reagent (Promega, #E6051) using a Victor X instrument (Perkin Elmer). The data were fit by nonlinear regression to a 4-parameter logistic equation with Prism 5 software (GraphPad).

hAPLNR [2] = target: T1, hAPLNR; assay: cyclic AMP (CRE-luciferase) assay, activation of hAPLNR in HEK293/CRE-luc/hAPLNR cells; type: cell-based; details: % of maximum Apelin activation, without Apelin
Description: The ability of anti-APLNR antibodies to activate hAPLNR-mediated cell signaling was measured using a cyclic AMP assay. The hAPLNR is a 7-transmembrane G-protein coupled receptor (GPCR).
The resulting cell line, HEK293/CRE-luc/hAPLNR, was maintained in DMEM containing 10% FBS, NEAA, penicillin/streptomycin, and 100 μg/mL Hygromycin B.
Testing of antibodies included a no antibody control.
The results of all assays were analyzed using nonlinear regression (4-parameter logistics) within Prism 5 software (GraphPad).

HEK293 parental cells = assay: FACS binding to HEK293 parental cells; details: 10 μg/mL antibody
Description: Binding ratios for human APLNR binding to purified anti-APLNR monoclonal antibodies were determined by a fluorescence-activated cell sorting (FACS) binding assay. […] The resulting stable cell lines, HEK293/CRE-luc/hAPLNR and HEK293/CRE-luc/MfAPLNR, were maintained in DMEM containing 10% FBS, NEAA, and penicillin/streptomycin with either 100 μg/mL Hygromycin B for hAPLNR cells or 500 μg/mL G418 for MfAPLNR cells.
For the FACS analysis, HEK293 parental, HEK293/CRE-luc/hAPLNR, and, HEK293/CRE-luc/mfAPLNR cells were dissociated using Enzyme Free Dissociation reagent (#S-004, Millipore, Billerica, Mass., USA) and 10^6 cells/well were plated onto 96-well v-bottom plates in PBS containing 1% FBS. […] Cells were then filtered and analyzed on Accuri Flow Cytometer (BD Biosciences, San Jose, Calif., USA). Unstained and secondary antibody alone controls were also tested for binding to all cell lines. […] Geometric mean (Geom. mean) of fluorescence for each antibody was then normalized to geometric mean of unstained cells to obtain relative binding of antibody (binding ratios) per each cell type: HEK293 (parental), HEK293/CRE-luc/hAPLNR and HEK293/CRE-luc/MfAPLNR.

[3] = target: T2, human APLNR (humanized APLNR mice) (Homo sapiens, UniProt P35414); assay: retinal vascular development (RVD) model in humanized APLNR mouse pups; type: in vivo
T2 construct: homozygous for expression of human APLNR in place of mouse APLNR (humanized APLNR mice); from tissue; host or cells: living humanized APLNR mouse pups (75% C57BL6 / 25% Sv129); read-out in the retina
T2 sequence (P35414 1-380): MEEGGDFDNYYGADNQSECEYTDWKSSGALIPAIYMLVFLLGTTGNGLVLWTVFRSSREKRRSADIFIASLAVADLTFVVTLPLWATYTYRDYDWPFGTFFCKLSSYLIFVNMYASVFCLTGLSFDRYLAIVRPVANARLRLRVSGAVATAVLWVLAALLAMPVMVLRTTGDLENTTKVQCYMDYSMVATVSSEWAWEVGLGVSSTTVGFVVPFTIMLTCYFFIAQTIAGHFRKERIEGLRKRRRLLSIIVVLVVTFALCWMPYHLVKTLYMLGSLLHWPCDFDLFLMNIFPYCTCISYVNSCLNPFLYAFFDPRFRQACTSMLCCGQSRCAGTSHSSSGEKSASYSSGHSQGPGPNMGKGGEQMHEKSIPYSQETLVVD
Description: To assess the in vivo characteristics of select anti-APLNR antibodies of the invention, their ability to block APLNR-mediated angiogenesis in the eye vasculature was measured.
A retinal vascular development (RVD) model was used to evaluate the effects of an antagonistic anti-APLNR antibody on blood vessel outgrowth in the normal developing retina of mouse pups that were of a mixed background strain (75% C57BL6 and 25% Sv129) and homozygous for expression of human APLNR in place of mouse APLNR (humanized APLNR mice). Pups were subcutaneously injected on postnatal day 2 (P2) with either 50 mg/kg of an anti-APLNR antagonist antibody, H2aM9232N, or an irrelevant human Fc (hFc) control. Reagents were masked and labeled as Solution A and Solution B to prevent experimenter bias. At postnatal day 5, tissue samples were collected and then fixed in PBS containing 4% paraformaldehyde. Fixed tissue samples were washed with PBS three times for 15 minutes, and subsequently stained with GS Lectin I (Vector Laboratories, #FL-1101) diluted 1:200 in 1×PBS containing 1% BSA in 0.25% Triton-X 100 overnight at 25° C. to visualize retinal vasculature. The following day, stained samples were rinsed with PBS three times for 15 minutes each, flat-mounted onto slides, and coverslips were subsequently mounted using Prolong Gold (Invitrogen, #P36930). Images were taken at 20 times magnification using an epi-fluorescent microscope (Nikon Eclipse 80). The vascularized areas in the retina were measured from acquired images from this assay using Adobe Photoshop CS6 extended. Statistical differences between the results obtained from the IgG control antibody and H2aM9232N treated samples were assessed using a two tailed, unpaired Student T-test (**, p<0.001). Only after retinal vasculature area measurements and statistical analysis were completed, the sample identities were unmasked.

CSCC[C@H](NC(=O)[C@@H]1CCCN1C(=O)CNC(=O)[C@H](CCCCN)NC(=O)[C@H](Cc1c[nH]cn1)NC(=O)[C@H](CO)NC(=O)[C@H](CC(C)C)NC(=O)[C@H](CCCNC(=N)N)NC(=O)[C@@H]1CCCN1)C(=O)N1CCC[C@H]1C(=O)N[C@@H](Cc1ccccc1)C(=O)O [Apelin-11, reference compound]
EC50 (hAPLNR [1]): 0.438 nM

CSCC[C@H](NC(=O)[C@@H]1CCCN1C(=O)CNC(=O)[C@H](CCCCN)NC(=O)[C@H](Cc1c[nH]cn1)NC(=O)[C@H](CO)NC(=O)[C@H](CC(C)C)NC(=O)[C@H](CCCNC(=N)N)NC(=O)[C@@H]1CCCN1C(=O)[C@H](CCCNC(=N)N)NC(=O)[C@@H](N)CCC(N)=O)C(=O)N1CCC[C@H]1C(=O)N[C@@H](Cc1ccccc1)C(=O)NCC(=O)NCC(=O)NCC(=O)NCC(=O)NCC(=O)O [Apelin-13 + 5G]
EC50 (hAPLNR [1]): 0.147 nM

PRLSHKGPM [Apelin67-75]
EC50 (hAPLNR [1]): 374 nM

RPRLSHKGPM [Apelin66-75]
EC50 (hAPLNR [1]): 0.00217 nM

B1: H2aM9232N: antagonistic anti-APLNR antibody, HCVR/LCVR SEQ ID NOs 98/106, mouse IgG2a Fc (antibody, V domains shown)
VH: QVKLVESGGGVVQPGRSLRLSCAASGFTFSNYVIHWVRQAPGKGLEWVAVIWYDGSNKYYADSVKGRFTISRDNSKNTLYLQMNSLRAEDTAVYYCARDRVVRGVDYYYYYGLDVWGQGTSVTVSS
VL: EIVMTQSPATLSVSPGERATLSCRASQSVRSNLAWYQQKPGQAPRLLIYGASSRATGIPARFSGTGSGTEFTLTISSLQSDDFAVYYCQQYNKWPRTFGQGTKVEIK
modifications: mouse IgG2a Fc
% Activation at 100 nM mAb (at 10 uM Forskolin) (hAPLNR [2]; Table 6A): No Activation
% Activation at 500 nM mAb (at […] Forskolin) (hAPLNR [2]; Table 6B): did not demonstrate any measurable activation; also recorded: No Activation
Binding Ratio of Geom. Mean to Unstained Cells, HEK293 Parental (HEK293 parental cells): 6
Retinal blood vessel outgrowth (mm^2), MEAN ([3]; 50 mg/kg s.c. on postnatal day 2, read at postnatal day 5): 2.84 mm^2
Retinal blood vessel outgrowth (mm^2), individual eye ([3]; 50 mg/kg s.c. on postnatal day 2, read at postnatal day 5, single eyes (OD/OS)): 2.49 mm^2 and 3.04 mm^2 and 3.57 mm^2 and 3.32 mm^2 and 2.23 mm^2 and 2.36 mm^2
mean reduction in retinal blood vessel outgrowth compared to control (hFc) ([3]; single s.c. injection 50 mg/kg, postnatal day 5): approximately 30%
